B1: AP-1 complex subunit sigma-2 (Homo sapiens), P56377 (parent)
chain: MQFMLLFSRQGKLRLQKWYVPLSDKEKKKITRELVQTVLARKPKMCSFLEWRDLKIVYKRYASLYFCCAIEDQDNELITLEIIHRYVELLDKYFGSVCELDIIFNFEKAYFILDEFLLGGEVQETSKKNVLKAIEQADLLQEEAETPRSVLEEIGLT
B2: Peripheral plasma membrane protein CASK (Homo sapiens), O14936 (parent)
chain: MADDDVLFEDVYELCEVIGKGPFSVVRRCINRETGQQFAVKIVDVAKFTSSPGLSTEDLKREASICHMLKHPHIVELLETYSSDGMLYMVFEFMDGADLCFEIVKRADAGFVYSEAVASHYMRQILEALRYCHDNNIIHRDVKPHCVLLASKENSAPVKLGGFGVAIQLGESGLVAGGRVGTPHFMAPEVVKREPYGKPVDVWGCGVILFILLSGCLPFYGTKERLFEGIIKGKYKMNPRQWSHISESAKDLVRRMLMLDPAERITVYEALNHPWLKERDRYAYKIHLPETVEQLRKFNARRKLKGAVLAAVSSHKFNSFYGDPPEELPDFSEDPTSSGLLAAERAVSQVLDSLEEIHALTDCSEKDLDFLHSVFQDQHLHTLLDLYDKINTKSSPQIRNPPSDAVQRAKEVLEEISCYPENNDAKELKRILTQPHFMALLQTHDVVAHEVYSDEALRVTPPPTSPYLNGDSPESANGDMDMENVTRVRLVQFQKNTDEPMGITLKMNELNHCIVARIMHGGMIHRQGTLHVGDEIREINGISVANQTVEQLQKMLREMRGSITFKIVPSYRTQSSSCERDSPSTSRQSPANGHSSTNNSVSDLPSTTQPKGRQIYVRAQFEYDPAKDDLIPCKEAGIRFRVGDIIQIISKDDHNWWQGKLENSKNGTAGLIPSPELQEWRVACIAMEKTKQEQQASCTWFGKKKKQYKDKYLAKHNAVFDQLDLVTYEEVVKLPAFKRKTLVLLGAHGVGRRHIKNTLITKHPDRFAYPIPHTTRPPKKDEENGKNYYFVSHDQMMQDISNNEYLEYGSHEDAMYGTKLETIRKIHEQGLIAILDVEPQALKVLRTAEFAPFVVFIAAPTITPGLNEDESLQRLQKESDILQRTYAHYFDLTIINNEIDETIRHLEEAVELVCTAPQWVPVSWVY
partner: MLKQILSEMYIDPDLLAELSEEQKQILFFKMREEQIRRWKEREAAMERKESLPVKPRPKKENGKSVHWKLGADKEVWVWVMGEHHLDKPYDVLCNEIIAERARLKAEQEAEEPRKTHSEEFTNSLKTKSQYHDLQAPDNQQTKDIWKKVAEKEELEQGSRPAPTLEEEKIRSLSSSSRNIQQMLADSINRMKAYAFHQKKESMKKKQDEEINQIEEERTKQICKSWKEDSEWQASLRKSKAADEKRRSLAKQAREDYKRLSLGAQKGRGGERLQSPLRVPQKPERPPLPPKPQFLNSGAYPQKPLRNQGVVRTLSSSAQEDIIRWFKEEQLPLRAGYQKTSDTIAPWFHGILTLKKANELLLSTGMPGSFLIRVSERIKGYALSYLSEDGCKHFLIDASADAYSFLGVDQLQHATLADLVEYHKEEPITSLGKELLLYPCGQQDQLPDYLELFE
B3: Protein SSX5 (Homo sapiens), O60225 (parent)
chain: MNGDDAFVRRPRVGSQIPEKMQKAFDDIAKYFSEKEWEKMKASEKIIYVYMKRKYEAMTKLGFKATLPPFMRNKRVADFQGNDFDNDPNRGNQVEHPQMTFGRLQGIFPKITPEKPAEEGNDSKGVPEASGPQNNGKQLRPSGKLNTSEKVNKTSGPKRGKHAWTHRVRERKQLVIYEEISDPQEDDE
partner: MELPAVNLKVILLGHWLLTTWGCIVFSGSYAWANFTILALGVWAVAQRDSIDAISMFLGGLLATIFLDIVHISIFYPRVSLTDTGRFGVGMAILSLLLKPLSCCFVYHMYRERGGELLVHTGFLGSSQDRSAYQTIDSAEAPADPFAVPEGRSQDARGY
B4: RNA-binding protein 3 (Homo sapiens), P98179 (parent)
chain: MSSEEGKLFVGGLNFNTDEQALEDHFSSFGPISEVVVVKDRETQRSRGFGFITFTNPEHASVAMRAMNGESLDGRQIRVDHAGKSARGTRGGGFGAHGRGRSYSRGGGDQGYGSGRYYDSRPGGYGYGYGRSRDYNGRNQGGYDRYSGGNYRDNYDN
B5: RNA-binding protein 3 (Homo sapiens), P98179 (parent)
chain: B4 chain
partner: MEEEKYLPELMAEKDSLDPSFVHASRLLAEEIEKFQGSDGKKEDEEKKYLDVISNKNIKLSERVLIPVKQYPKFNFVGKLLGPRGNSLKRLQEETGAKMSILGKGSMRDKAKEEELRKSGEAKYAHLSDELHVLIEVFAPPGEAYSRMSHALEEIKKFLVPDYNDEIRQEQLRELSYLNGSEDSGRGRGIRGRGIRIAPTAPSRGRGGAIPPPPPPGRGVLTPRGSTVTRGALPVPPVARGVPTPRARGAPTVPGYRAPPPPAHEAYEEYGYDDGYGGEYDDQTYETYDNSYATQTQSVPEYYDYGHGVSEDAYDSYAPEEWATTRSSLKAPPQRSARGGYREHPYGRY
B6: RNA-binding protein 3 (Homo sapiens), P98179 (parent)
chain: B4 chain
partner: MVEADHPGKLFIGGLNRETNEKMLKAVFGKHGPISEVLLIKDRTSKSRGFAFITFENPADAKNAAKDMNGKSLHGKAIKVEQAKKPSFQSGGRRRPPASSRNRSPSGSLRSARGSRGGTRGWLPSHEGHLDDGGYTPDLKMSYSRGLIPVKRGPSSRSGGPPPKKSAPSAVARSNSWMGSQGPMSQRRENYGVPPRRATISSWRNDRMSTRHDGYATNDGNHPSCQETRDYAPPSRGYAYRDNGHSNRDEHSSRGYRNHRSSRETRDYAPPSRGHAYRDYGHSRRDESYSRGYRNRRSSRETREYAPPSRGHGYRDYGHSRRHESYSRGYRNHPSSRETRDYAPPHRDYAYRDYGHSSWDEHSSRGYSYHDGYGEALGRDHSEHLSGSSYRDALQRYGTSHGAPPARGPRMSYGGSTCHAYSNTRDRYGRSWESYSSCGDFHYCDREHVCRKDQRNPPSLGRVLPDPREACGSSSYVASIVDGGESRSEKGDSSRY

Variants of: B1
Settings: with ap1g1_human AP1G1, O43747
Chain of ap1g1_human AP1G1, O43747 (O43747 whole entry): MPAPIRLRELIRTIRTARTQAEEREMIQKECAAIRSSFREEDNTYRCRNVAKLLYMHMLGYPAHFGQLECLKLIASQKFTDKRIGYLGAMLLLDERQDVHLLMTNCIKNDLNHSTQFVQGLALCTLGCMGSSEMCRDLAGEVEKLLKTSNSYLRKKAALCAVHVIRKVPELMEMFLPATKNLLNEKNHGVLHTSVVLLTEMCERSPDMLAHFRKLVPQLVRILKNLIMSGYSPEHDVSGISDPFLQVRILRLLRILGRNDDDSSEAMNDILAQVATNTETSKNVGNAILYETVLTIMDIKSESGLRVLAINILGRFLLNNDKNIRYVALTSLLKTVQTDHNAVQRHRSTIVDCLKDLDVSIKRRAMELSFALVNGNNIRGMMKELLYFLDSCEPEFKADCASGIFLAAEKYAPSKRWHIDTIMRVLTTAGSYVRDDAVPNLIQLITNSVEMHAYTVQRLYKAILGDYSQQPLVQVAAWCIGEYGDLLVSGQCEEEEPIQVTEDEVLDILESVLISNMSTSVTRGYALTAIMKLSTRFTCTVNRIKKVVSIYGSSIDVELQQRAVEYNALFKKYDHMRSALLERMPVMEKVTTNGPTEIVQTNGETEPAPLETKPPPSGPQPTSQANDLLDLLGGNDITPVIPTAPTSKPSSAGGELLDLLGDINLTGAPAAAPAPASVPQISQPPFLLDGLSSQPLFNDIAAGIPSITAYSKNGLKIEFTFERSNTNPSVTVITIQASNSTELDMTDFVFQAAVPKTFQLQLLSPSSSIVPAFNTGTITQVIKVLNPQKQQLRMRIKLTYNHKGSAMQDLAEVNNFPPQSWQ

**Q.** How did the “effect of a mutation on the interaction” value turn out when MQFMLLFSCQGKLRLQKWYVPLSDKEKKKITRELVQTVLARKPKMCSFLEWRDLKIVYKRYASLYFCCAIEDQDNELITLEIIHRYVELLDKYFGSVCELDIIFNFEKAYFILDEFLLGGEVQETSKKNVLKAIEQADLLQEEAETPRSVLEEIGLT [R9C] was run?
**A.** with no effect

Variants of: B2
Settings: with sh24a_human SH2D4A

**Q.** With G197R as the variant, how does the “effect of a mutation on the interaction” value read?
**A.** with no effect

Variants of: B3
Settings: with atrap_human AGTRAP

**Q.** With MNGDDAFVRRPRVGSQIPEKMQKAFDDIAKYFSEKEWEKMKASEKIIYVYMKRRYEAMTKLGFKATLPPFMRNKRVADFQGNDFDNDPNRGNQVEHPQMTFGRLQGIFPKITPEKPAEEGNDSKGVPEASGPQNNGKQLRPSGKLNTSEKVNKTSGPKRGKHAWTHRVRERKQLVIYEEISDPQEDDE [K54R] as the variant, how does the “effect of a mutation on the interaction” value read?
**A.** disrupting interaction strength

Variants of: B4
Settings: with snrpa_human SNRPA

**Q.** Which “effect of a mutation on the interaction” value does the source give for MSSEEGKLFVGGLNFNTDEQALEDHFSSFGPISEVVVVKDRETQRSRGFGFITFTNPEHASVAMRAMNGESLDGRQIRVDHAGKSARGTRGGGFGAHGRGRSYSRGGGDQGYGSGRYYDSRPGGYGYGYGRSRDYNGRNQGGYDHYSGGNYRDNYDN [R145H] here?
**A.** with no effect

Variants of: B4
Settings: with rbmx_human RBMX

**Q.** For MSSEEGKLFVGGLNFNTDEQALEDHFSSFGPISEVVVVKDRETQRSRGFGFITFTNPEHASVAMRAMNGESLDGRQIRVDHAGKSARGTRGGGFGAHGRGRSYSRGGGDQGYGSGRYYDSRPGGYGYGYGRSRDYNGRNQGGYDHYSGGNYRDNYDN [R145H], which “effect of a mutation on the interaction” value is on record?
**A.** with no effect

Variants of: B5
Settings: with khdr2_human KHDRBS2, Q5VWX1

**Q.** Which “effect of a mutation on the interaction” value does the source give for MSSEEGKLFVGGLNFNTDEQALEDHFSSFGPISEVVVVKDRETQRSRGFGFITFTNPEHASVAMRAMNGESLDGRQIRVDHAGKSARGTRGGGFGAHGRGRSYSRGGGDQGYGSGRYYDSRPGGYGYGYGRSRDYNGRNQGGYDHYSGGNYRDNYDN [R145H] here?
**A.** with no effect

Variants of: B6
Settings: with rby1a_human RBMY1A1, P0DJD3

**Q.** How did the “effect of a mutation on the interaction” value turn out when MSSEEGKLFVGGLNFNTDEQALEDHFSSFGPISEVVVVKDRETQRSRGFGFITFTNPEHASVAMRAMNGESLDGRQIRVDHAGKSARGTRGGGFGAHGRGRSYSRGGGDQGYGSGRYYDSRPGGYGYGYGRSRDYNGRNQGGYDHYSGGNYRDNYDN [R145H] was run?
**A.** with no effect

From IntAct's records for PubMed 29892012
